In the RNAGym collection of RNA variant scans (doi:10.7554/elife.80360):

B1: HDV Ribozyme (parent)
chain: GGCCGGCAUGGUCCCAGCCUCCUCGCUGGCGCCGGCUGGGCAACAUUCCGAGGGGACCGUCCCCUCGGUAAUGGCGAAUGGGACCCA

Variants of: B1
Experiment: self-cleavage, relative activity (ratio to wild type); higher = more cleavage; co-transcriptional

Variant | self-cleavage
C24G A83G | 0.153
G25U G55U | 0.151
G25U C57G | 0.208
G25U C57A | 0.192
U23G G34U | 0.0959
G25C C75A | 0
G25A A45U | 0.0489
G25A A45C | 0.227
G25U A71G | 0.101
C24U U60C | 0.752
C24U U60A | 0.627
G25A A43U | 0.0437
G25A A51G | 0.269
G25A G34A | 0.0863
G25A G34C | 0.229
U23G G29U | 0
G25A G76C | 0.217
U23G G40U | 0.431
C24U G31U | 0.0228
C24A A51G | 0.665
G25U C58U | 0.217
G25U C58G | 0.18
C24A G82A | 0.223
G25A C84A | 0.175

Variant | self-cleavage
G25U G67C | 0.277
U23G G74A | 0.0489
C24G C36G | 0.0923
C24G C36A | 0
C24U A83C | 0.219
C24U A83U | 0.198
C24U A83G | 0.394
C24A U79A | 0.227
U23G U79A | 0.322
C24U C64G | 0.779
U23G G76C | 0.684
C24G G50A | 0.104
C24U G55C | 0.729
C24A G50C | 0.855
C24G U37C | 0.119
C24U G34U | 0.17
C24A C86U | 0.633
U23G G39A | 0.17
C26A C75U | 0.203
G25A G55C | 0.191
G25C C26A | 0.196
G25C C26G | 0.731
G25U U60G | 0.229
U23G G67U | 0.789

Variant | self-cleavage
C26A C32G | 0
C24U A78U | 0.172
G25U G59C | 0.0997
G25U G59U | 0.0511
G25U G59A | 0.104
C26A G28A | 0.166
C24G A78G | 0.173
C24U A51C | 0.767
C24U A51U | 0.681
C24G C85G | 0.125
G25U A70C | 0.237
G25U G53C | 0.155
G25A C86A | 0.104
G25A C86G | 0.122
G25C U37C | 0.0554
C26A C64G | 0.95
G25A C48U | 0.264
G25U U65G | 0.269
C24A G28U | 0.0386
C24A G28A | 0.208
G25C A83U | 0.0923
G25A G29C | 0.0583
G25A G29U | 0.0941
G25C C64G | 0.0573

Variant | self-cleavage
C24U U72G | 0.323
G25A G28U | 0.0185
G25A G28A | 0.0482
G25A G28C | 0.231
C24G U47C | 0.0462
G25U G40C | 0.0297
G25U G40U | 0.193
G25U G31C | 0.101
G25U G31U | 0.0875
C26A C30A | 0.491
G25U C62U | 0.0615
G25U C63A | 0.0791
G25U C63U | 0.163
G25U C63G | 0.203
G25C G80U | 0.126
G25C U72G | 0.0639
C26A G31A | 0.818
C26A G31C | 0.453
C24A C62G | 0.554
C24G G38U | 0.0268
C24A A83U | 0.415
C24A A83C | 0.192
G25C U47C | 0
C24U C63A | 0.753

Variant | self-cleavage
G25U C48A | 0.332
G25A U72A | 0.158
C24G A42C | 0.101
G25A A77C | 0.0978
C24U U37A | 0.18
C24U U37C | 0.753
G25A C66A | 0.287
G25C G34A | 0.143
C26A C36U | 0.629
G25U C85A | 0.125
G25U C85G | 0.0755
C24U G76U | 0.917
C24G C41G | 0
C24G C41U | 0.102
C24A G59C | 0.8
G25A U37A | 0.213
G25A U37C | 0.141
G25U U79A | 0.0875
G25C G31A | 0.135
C24U C61G | 0.745
C24U A71C | 0.453
U23G U65C | 0.864
C24A U47G | 0.434
C24A U47C | 0.508

Variant | self-cleavage
G25A A78G | 0.0339
C24A A77C | 0.185
C24G C44G | 0.125
C24A U72A | 0.271
G25A C62U | 0.182
G25A C62G | 0.151
G25A G35A | 0.271
C24A A43C | 0.0415
C24A C84U | 0.587
C24G G67U | 0.135
C24A A78U | 0.0923
G25C C62U | 0.145
G25C C62G | 0.0615
G25C G82C | 0.0326
G25C G82U | 0.0755
C24G G52A | 0.123
G25U C75G | 0.128
G25U C75A | 0.0941
C26A A51G | 1.11
C24G G35U | 0
G25C G35U | 0.0692
G25U G80C | 0.0733
C24U A45G | 0.373
G25U G81U | 0.138

Variant | self-cleavage
C24G G73C | 0.107
C24G C84G | 0.0811
C24U G25A | 0.181
C24U G25C | 0.125
G25A C32U | 0.169
U23G G52C | 0.807
C24G G54C | 0.0511
C24G G54A | 0
C24G G54U | 0.183
C24U A70U | 0.598
C24G C66A | 0.0723
U23G C75G | 0.111
C24G A56C | 0.0723
C24G A56G | 0.0875
G25A C44U | 0.107
G25A C44A | 0
G25C U27G | 0
G25C U27C | 0.128
U23G G55C | 0.748
C24A C66A | 0.764
G25A C41U | 0.155
C24A G52U | 0.769
G25A G53A | 0.245
G25A G53C | 0.248

Variant | self-cleavage
C24U C49U | 0.758
G25A G81A | 0.125
G25A C58G | 0.111
G25A C58A | 0.237
C24A G53U | 0.858
G25U G76C | 0.224
G25U G76U | 0.389
G25U G76A | 0
C24G U65C | 0.224
G25A G68C | 0.253
C24A G67C | 0.739
U23G G28C | 0
C24U G68U | 0.891
C24U G68C | 0.456
C24U G68A | 0.831
G25C G29U | 0.0773
C26A G50A | 0.881
G25C G40C | 0.156
G25C G40U | 0.0563
G25A C61A | 0.201
C24A C48A | 0.717
C24U U79C | 0.161
C24G C63A | 0.18
C24G C63U | 0.0875

Variant | self-cleavage
C24G G81A | 0.0332
G25C A77G | 0.111
G25C G68U | 0.161
G25A C64G | 0.13
G25A C64U | 0.204
G25A G82U | 0.119
C24U C32G | 0
C24A C57U | 0.727
C26A G40U | 0.946
G25C C66G | 0.0978
U23G U60A | 0.831
G25U G34U | 0.026
C24A C49G | 0.787
G25U U69A | 0.196
G25U U69C | 0.229
G25C C85A | 0.0594
C26A A71C | 1.07
G25U U27G | 0.185
G25A A42U | 0
G25U U72G | 0.181
G25U U72C | 0.111
C24U C41A | 0.608
C26A C57U | 0.959
C24A U65C | 0.658

Variant | self-cleavage
C24A G55U | 0.908
G25C U65A | 0.155
G25U C44U | 0.119
G25U C44A | 0.0852
G25U U37A | 0.0831
C24U U47C | 0.739
C24G G80U | 0.0746
C24G G80A | 0.0791
G25C A51C | 0.128
C24G C49U | 0.115
C24A C75G | 0.0898
C24A C75U | 0.169
G25U A77C | 0.0504
C24G C33U | 0.104
U23G U69C | 0.598
C24A G34U | 0.0831
G25C C57G | 0.119
G25U G29A | 0.0369
C24A G40U | 0.41
C24A G29C | 0.136
U23G U37G | 0.217
U23G U37C | 0.751
C24U C48U | 0.604
C24U C48A | 0.692

Variant | self-cleavage
G25A G50A | 0.406
G25A G50U | 0.242
C24U C75U | 0.197
C24A G35A | 0.212
G25A G40U | 0.161
G25C G52A | 0.17
C24U C33G | 0.166
C24U C33A | 0.0845
C24U C66A | 0.525
G25C A78G | 0
U23G G80A | 0.134
U23G G80U | 0.129
C24G U27A | 0.0437
C26A C49U | 0.849
C24U C85U | 0.718
C24U C85A | 0.831
C24U C85G | 0.629
C24G G39A | 0.0845
C24G G39C | 0.18
C24A A87U | 0.749
C24A A87G | 0.7
G25C C30G | 0.0959
G25C C30U | 0.0326
C24G U69C | 0.0354

Variant | self-cleavage
C24G U69G | 0.332
C24U A43U | 0.182
C24U A43G | 0
G25U G35A | 0.0415
C24U G80C | 0.179
G25A G54C | 0.138
C24U G73U | 0.122
G25A G67A | 0.299
G25A G67C | 0.277
C24A U46C | 0.269
C24A U46G | 0.554
G25U G52C | 0.208
G25C G28U | 0.119
G25C G28C | 0
G25U G28A | 0
G25A A83U | 0.0678
G25A C63U | 0.289
C24G C57G | 0.192
G25C A87G | 0.174
G25C C44G | 0.101
G25C C44A | 0.185
G25A C30U | 0.143
G25C C36U | 0.0978
G25U G73U | 0.117

Variant | self-cleavage
G25U G73A | 0.0923
G25U G73C | 0.0415
C24A A45C | 0.19
C24U G29A | 0.0415
C24A G68A | 0.678
C24G G76A | 0.101
C24G G76U | 0.339
C24A G25U | 0.277
C24A G25C | 0.208
G25A U27A | 0.161
C24G A51C | 0
C26A A45U | 1.19
C26A A45C | 0.554
C26A A45G | 0.978
G25U C66G | 0.0354
C24U G39C | 0.0302
C24U G39U | 0.111
C24U G39A | 0.257
C26A C62U | 1.12
G25A U60C | 0.138
G25A U60A | 0.295
C24U G52C | 0.884
C24U G52U | 0.694
G25C U60C | 0.0504

Variant | self-cleavage
C26A C61G | 1.04
C26A C61A | 0.865
C26A C61U | 0.974
G25C G55U | 0.089
C24A C26A | 0.743
U23G G25U | 0.0594
G25U C61A | 0.287
C26A A87U | 1.21
C24G U79C | 0.165
C24G U79G | 0
C26A C58G | 1.09
C26A C58A | 1.24
C26A A78C | 0.284
G25U G54U | 0.228
C24U C44G | 0.119
C24U A87G | 0.55
C24A G38U | 0.0791
G25U C41U | 0.188
C24A G81C | 0.17
C24A G81A | 0.0852
G25U C30A | 0.158
G25U C30G | 0.148
